Measurements from patent US20190218613A1, “METHODS OF DETECTING THE FORMATION OF CELLULAR CLUSTERS OF RNA” (The Regents of the University of California, priority 2017, published 2019).

B1: proteinase K: protease enzyme (protein, UniProt P06873 106-384, looked up)
Proteinase K: AAQTNAPWGLARISSTSPGTSTYYYDESAGQGSCVYVIDTGIEASHPEFEGRAQMVKTYYYSSRDGNGHGTHCAGTVGSRTYGVAKKTQLFGVKVLDDNGSGQYSTIIAGMDFVASDKNNRNCPKGVVASLSLGGGYSSSVNSAAARLQSSGVMVAVAAGNNNADARNYSPASEPSVCTVGASDRYDRRSSFSNYGSVLDIFGPGTSILSTWIGGSTRSISGTSMATPHVAGLAAYLMTLGKTTAASACRYIADTANKGDLSNIPFGTVNLLAYNNYQA
B2: RNase A: ribonuclease enzyme (protein, UniProt P61823 27-150, looked up)
Ribonuclease pancreatic: KETAAAKFERQHMDSSTSAASSSNYCNQMMKSRNLTKDRCKPVNTFVHESLADVQAVCSQKNVACKNGQTNCYQSYSTMSITDCRETGSSKYPNCAYKTTQANKHIIVACEGNPYVPVHFDASV

Tested on: 47× CAG RNA
Experiment: In vitro RNA phase separation/gelation assay (fluorescence micrographs, index of dispersion)
Type: biochemical
Conditions: proteinase K 60 U/mL, DNase I 200 U/mL, RNaseA 0.7 U/mL; 10 minutes, room temperature
Protocol: For phase separation/gelation assays, RNAs were diluted to concentrations of 0.5 ng/μL to 0.5 μg/μL in 10 mM Tris pH 7.0, 10 mM MgCl2, 25 mM NaCl buffer, unless indicated otherwise. Nuclease-free buffer stocks were purchased from Ambion. RNA was denatured at 95° C. for 3 minutes and cooled down at 1-4° C. per minute to 37° C. final temperature in a thermocycler and imaged immediately. Samples were visualized using a custom spinning disk confocal microscope (Nikon Ti-Eclipse equipped with a Yokogawa CSU-X spinning disk module) using a×100, 1.49 numerical aperture oil immersion objective and an air-cooled EM-CCD (electron multiplying charge-coupled device). The extent of phase separation/gelation was quantified by the index of dispersion (σ^2/μ) of fluorescence intensity per pixel (pixel size 83 nm×83 nm). Briefly, variance in the fluorescence intensity per image was determined, and normalized to the mean fluorescence intensity in the solution phase of the RNA. For dilute solution (<10% of imaging area occupied with clusters), this parameter reports the extent of inhomogeneity in the sample. At least 20 independent imaging areas (about 1,800 μm^2 each) were analyzed for each condition to achieve a representative measure across the sample. Each datum point in the bar graphs represents one imaging area. […]

dissolution of 47× CAG RNA clusters by enzyme treatment | Molecule
not | B1
dissolved | B2
